Earlier results on two substances are cited in PMC8707981.

Where two headings read alike, the source gives them in different places.

A word on the Kd: it is the free concentration of one partner at which half of the binding sites on the other are occupied at equilibrium, for simple one-to-one binding.

Data set [1] concerns the target Spike protein RBD (SARS-CoV-2) (UniProt P0DTC2).
For data set [2] the target is unchanged. This is another data set of the same source.

As for Casirivimab, the Kd in data set [1] was 0.0458 nM.

Imdevimab: the dissociation constant Kd in data set [2] is 0.0467 nM.
